Measurements taken from patent publication US8143366B2, “Aryl carbamate oligomers for hydrolyzable prodrugs and prodrugs comprising same” (priority 2003, dated 2012).
Like-named read-outs stand apart in the source and are kept apart here.

What was measured:
[1] = Ex vivo hydrolysis in rat plasma at 37° C.; assay type: in vitro ADME; conditions: Table 2 conjugates, average of three experiments ± s. d.
Procedure: Experiments using rat plasma were conducted in similar fashion to the esterase hydrolysis experiments. A stock, or reference, solution of each conjugate was made that was ˜15 mg/mL in DMSO. Two hundred microliters of stock were added to 800 μL 50 mM PBS buffer. Fifty microliters of this latter solution were added to 950 μL rat plasma and placed at 37° C. in a reciprocal waterbath shaker. At the appropriate time intervals, a 50 μl, aliquot was taken, added to 100 μl, ACN, and vigorously vortexed for 1 minute. The sample was centrifuged at 10,000 rpm for 5 minutes and 50 μL, of supernatant was then injected for HPLC analysis. A calibration curve for measuring the concentration of each conjugate was made.

[2] = target: T1, rabbit liver carboxylesterase (Oryctolagus cuniculus, UniProt P12337); conditions: pH 7.4
Procedure: (§1) Stock, or reference, solutions of hydrolyzable conjugates were first prepared at ˜2 mg/mL in DMSO. Working solutions of the hydrolyzable conjugates were then prepared in triplicate (working solutions A). Fifty microliters of stock conjugate were added to 5.0 mL 50 mM PBS buffer.
(§2) A stock solution of carboxylesterase was prepared by adding ˜2 mg esterase to 2.0 mL 50 mM PBS buffer. A working solution of carboxylesterase was prepared by diluting 50 uL of the stock solution with 5.0 mL 50 mM PBS buffer (working solution B).
(§3) Five hundred microliters of working solution B were then added to each working solution A (0.5 units enzyme and between 10-20 μM conjugate). The reaction mixtures were immediately vortexed and sampled for a time=0 analysis. The reaction solutions were incubated at 37° C. in a reciprocal waterbath shaker. At appropriate time intervals during incubation, 75 μL aliquots were taken and injected directly on HPLC for hydrolysis rate data. With each experiment, a new calibration curve for the particular conjugate was made.
(§4) The pseudo first-order rate constant, or “k”, is obtained from the slope of the natural log of the concentration of the conjugate versus time curve. The half-life is then calculated from k.

[3] = target: T1, rabbit liver carboxylesterase; assay: in vitro; conditions: purified rabbit liver carboxylesterase in PBS buffer, pH 7.4
Procedure: as §1, §2, §3, §4

T1 sequence (P12337 19-565): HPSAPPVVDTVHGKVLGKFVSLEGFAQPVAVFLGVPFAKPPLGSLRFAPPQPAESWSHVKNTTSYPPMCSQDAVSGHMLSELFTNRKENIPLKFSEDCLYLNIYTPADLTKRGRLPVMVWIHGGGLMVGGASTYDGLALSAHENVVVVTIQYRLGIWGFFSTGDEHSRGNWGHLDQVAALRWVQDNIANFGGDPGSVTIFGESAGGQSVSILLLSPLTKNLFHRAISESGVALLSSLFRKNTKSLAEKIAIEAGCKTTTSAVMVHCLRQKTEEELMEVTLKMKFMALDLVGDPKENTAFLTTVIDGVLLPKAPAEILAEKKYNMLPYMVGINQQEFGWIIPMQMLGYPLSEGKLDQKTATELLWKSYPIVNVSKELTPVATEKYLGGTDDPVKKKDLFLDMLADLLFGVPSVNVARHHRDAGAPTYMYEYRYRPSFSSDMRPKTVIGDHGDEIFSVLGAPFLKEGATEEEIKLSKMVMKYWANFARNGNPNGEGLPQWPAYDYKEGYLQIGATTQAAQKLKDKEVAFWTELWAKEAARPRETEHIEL

With `COCCOCCOCCOCCOc1ccc(OC(=O)N[C@@H](Cc2ccc(O)cc2)C(=O)NCC(=O)NCC(=O)N[C@@H](Cc2ccccc2)C(=O)N[C@@H](CC(C)C)C(=O)O)cc1OCCOC` the half-life [1] was 0.354 ± 0.0667 h and the half-life [2] was 2.7 ± 0.2 h.

For `COCCOCCOCCOCCNC(=O)c1ccc(OC(=O)N[C@@H](Cc2ccc(O)cc2)C(=O)NCC(=O)NCC(=O)N[C@@H](Cc2ccccc2)C(=O)N[C@@H](CC(C)C)C(=O)O)cc1`, the t1/2 [1] was “~Immediate Hydrolysis” and the half-life [3] was 0.04 ± 0.17 h.

`COCCOCCOCCOCCOCc1ccc(OC(=O)N[C@@H](Cc2ccc(O)cc2)C(=O)NCC(=O)NCC(=O)N[C@@H](Cc2ccccc2)C(=O)N[C@@H](CC(C)C)C(=O)O)cc1` showed a half-life at […] [1] of 0.027 ± 0.00733 h and a half-life [3] of 1.4 ± 0.1 h.

With `CCCCCCCCCCCCOCCOCCOCCOCCOCCOCCOCCOCCOc1ccc(OC(=O)N[C@@H](Cc2ccc(O)cc2)C(=O)NCC(=O)NCC(=O)N[C@@H](Cc2ccccc2)C(=O)N[C@@H](CC(C)C)C(=O)O)cc1` the half-life at […] [1] was 2.33 ± 0.0723 h and the half-life [3] was 10.4 ± 0.9 h.

In the case of `COCCOCCOCCOCCOc1ccc(OC(=O)N[C@@H](Cc2ccc(O)cc2)C(=O)NCC(=O)NCC(=O)N[C@@H](Cc2ccccc2)C(=O)N[C@@H](CC(C)C)C(=O)O)cc1`, the half-life at […] [1] is reported as 0.912 ± 0.0723 h and the half-life [3] is reported as 6.9 ± 0.1 h.

Work on `COCCOCCOCCOCCOC(=O)NC(Cc1ccc(OC(=O)N[C@@H](Cc2ccc(O)cc2)C(=O)NCC(=O)NCC(=O)N[C@@H](Cc2ccccc2)C(=O)N[C@@H](CC(C)C)C(=O)O)cc1)C(=O)OC` (some centres unmarked) yielded a half-life at […] [1] of 0.251 ± 0.0772 h and a half-life [3] of 1.3 ± 0.04 h.

For `COCCOCCOCCOCCNC(=O)c1cc(OC(=O)N[C@@H](Cc2ccc(O)cc2)C(=O)NCC(=O)NCC(=O)N[C@@H](Cc2ccccc2)C(=O)N[C@@H](CC(C)C)C(=O)O)cc(C(=O)NCCOCCOCCOCCOC)c1`, the t1/2 [1] was “~Immediate Hydrolysis” and the half-life [3] was 0.03 ± 0.12 h.
